Experiments:
[1] = Rheological properties of peptide solutions and hydrogels after salt ionic strength adjustment; type: physicochemical; conditions: for appearance of peptide solutions with salt and pH adjustment: 0.9% NaCl (ionic strength: 0.15 M) at pH 3.4 adjusted with NaOH; for rheological property of hydrogels after DMEM treatment at various ionic strengths: 1% hydrogels, DMEM treatment for 10 min; for rheological property of 1% solutions at various salt ionic strengths: 1% solution, storage modulus at 1 rad/sec; for rheological property of solutions after ionic strength adjustment with NaCl: NaCl to 0.7 M (PuraMatrix®), 0.2 M (KLD12) or 0.02 M (IEIK13), 1% solutions
Procedure: Based on the visual observation of the effect of salt ionic strength on the properties of the peptide solutions, the effect on the rheological properties of the peptide solutions after adjusting their ionic strength level with NaCl to 0.7 M (PuraMatrix®), 0.2 M (KLD12) or 0.02 M (IEIK13), which is closely below the critical ionic strength at which each peptide becomes cloudy, was evaluated. If the ionic strength levels with NaCl of peptide solutions are higher than 0.9 M (PuraMatrix®), 0.3 M (KLD12) or 0.03 M (IEIK13), the peptide solution begin phase separation becoming cloudy and weak. The rheological property of PuraMatrix®, KLD12 and IEIK13 solutions was higher after adjusting their ionic strength level with NaCl to 0.7 M (PuraMatrix®), 0.2 M (KLD12) or 0.02 M (IEIK13), The results are shown in FIG. 10 for KLD12 1%, FIG. 11 for IEIK13 1%, and FIG. 12 for PuraMatrix® 1%, respectively. Frequency sweep tests were performed from 1 rad/s to 10 rad/s at 1 Pa.
Based on the results of the effect on the rheological properties of the peptide solutions after adjusting their ionic strength level with NaCl to 0.7 M (PuraMatrix®), 0.2 M (KLD12) or 0.02 M (IEIK13), the effect on the rheological properties of the peptide solution at various salt ionic strengths was evaluated. […] The results are shown in FIG. 13 for PuraMatrix® 1% solution and in FIG. 14 for IEIK13 1% solution. Frequency sweep tests were performed from 1 rad/sec to 10 rad/sec at 1 Pa and the storage modulus at 1 rad/sec was selected for data.
Based on the results of the effect on the rheological properties of the peptide solutions after adjusting their ionic strength levels, the effect on the rheological properties of the peptide hydrogels after DMEM treatment for 10 min was evaluated. […] The results are shown in FIG. 15 for PuraMatrix® 1% hydrogels and in FIG. 16 for IEIK13 1% hydrogels, both after DMEM treatment for 10 min Frequency sweep tests were performed from 1 rad/sec to 10 rad/sec at 1 Pa and the storage modulus at 1 rad/sec was selected for data.
Based on the results of the effect on the rheological properties of the peptide solutions and hydrogels after adjusting their ionic strength levels with NaCl, the effect of various salts (KCl, MgCl2, and CaCl2) was also evaluated. The rheological property of PuraMatrix® solutions increases with ionic strength adjustment at 0.15 M of all the salts. Increases of the rheological property of PuraMatrix® solutions with various salts were not predominantly different. However, increases of the rheological property of PuraMatrix® solutions may vary depending on the salting out constant, K of each salt. Constant K is a constant in Cohen's equation: log S=B−KI, where S is solubility, B is idealized solubility, K is salting out constant, and I is ionic strength. With a higher value of constant K and ionic strength of salts, solubility of the peptide may decrease resulting in strong peptide self-assembly with increased hydrophobic effect and higher rheological properties of the peptide solution. The constant K of NaCl may be higher than the other salts. […] The results are shown in FIG. 17 for PuraMatrix® 1% solution before DMEM treatment, and in FIG. 18 for PuraMatrix® 1% hydrogels after DMEM treatment for 10 min.
In accordance with one or more embodiments, IEIK13, KLD12, and PuraMatrix® may be dissolved both in salt buffer such as NaCl and at an elevated pH level adjusted with alkali salt buffer such as NaOH to keep their salt ionic strength under their critical salt points as well as their pH level to about 2.5˜4.0, so that they may have stiffer properties. With respect to PuraMatrix®, […] and IEIK13, the peptide solutions are still clear with 0.9% NaCl (ionic strength: 0.15 M) at pH 3.4 adjusted with NaOH. […] The effect of salt ionic strength and pH adjustment on the rheological properties of PuraMatrix® 2.5% solution are shown in FIG. 20. […]

[2] = system: pleural defects in swine lungs; assay: Burst pressure of peptide hydrogels as air sealants on pleural defects of swine lungs; conditions: for ranking of burst pressures: 16 G pleural defects, 2.5% RADA16+0.25 M CaCl2 and 1.5% IEIK13
Description: Swine lungs were obtained from freshly euthanized pigs. An endotracheal tube was inserted through the trachea and primary bronchus into the lung of interest. Pressure was supplied to the lungs with the use of a manual endotracheal intubation pump. The trachea was tied off to prevent air leakage around the tube. The primary bronchus of the other lung was clamped to direct all airflow to the lung of interest. A manometer was used to measure the pressure of air directed into the lungs to induce expansion.
The self-assembling peptide hydrogels were comprised of Ac-RADARADARADARADA-NH2 (i.e. RADA16) (SEQ ID NO: 1), Ac-KLDLKLDLKLDL-NH2 (i.e. KLD12) (SEQ ID NO: 3), or Ac-IEIKIEIKIEIKI-NH2 (i.e. IEIK13) (SEQ ID NO: 2) with either RADA16 or KLD12 alone or mixed with 0.250 M calcium chloride. If alone, the peptides were reconstituted in deionized water. If, however the peptides were reconstituted with 0.250 M calcium chloride solution, the peptides were reconstituted first in deionized water, and subsequently, a 0.500 M solution of calcium chloride was mixed in at a 1:1 ratio.
The pleural defects were created using three different methods to measure the efficacy of the self-assembling peptide hydrogels: (1) A 16 gauge needle was used to puncture the lung and pleura, (2) A 5×5 mm area was measured and the lung and pleura were clipped using a pair of surgical scissors, and (3) A lobectomy (i.e. a complete resection of one lobe of the lung of interest). A 0.9% saline solution was streamed over the defect area and the location of the defect was identified by using the endotracheal intubation pump system to introduce air and observing the release of air bubbles.
Once the location of the defect was identified, the hydrogels were applied to the defect area via two different methods: (1) the hydrogel was applied topically by injecting through a syringe onto the defect area, and (2) the hydrogel was injected into the defect through an 18 gauge needle with overflow to cover the defect area topically. After a relaxation period of 2 min, pressure was applied through the endotracheal intubation pump until a burst pressure was identified. For any additional tests, airflow to the previously tested defect was cut off using a surgical clamp.

| Substance | rheological property of solutions with NaCl compared with KCl and CaCl2 ([1]; 0.15 M ionic strength, 1%) | appearance of peptide solutions with salt and pH adjustment [1] | rheological property of hydrogels after DMEM treatment at various ionic strengths [1] | rheological property of 1% solutions at various salt ionic strengths [1] | rheological property with salt and pH adjustment ([1]; 2.5% solution, 0.9% NaCl (0.15 M) at pH 3.4 vs control and only NaCl 0.9%) | ionic strength level with NaCl at which the peptide solution begins phase separation becoming cloudy and weak [1] | rheological property of solutions after ionic strength adjustment with NaCl [1] | gelation with DMEM treatment ([1]; above 0.9 M of NaCl ionic strength) | rheological property of solutions with various salts ([1]; ionic strength adjustment at 0.15 M of all the salts (NaCl, KCl, MgCl2, CaCl2), 1%) | effect of increasing exposure time on burst pressure ([2]; 2.5% RADA16, 16 G pleural defect, varying time points) | effect of needle gauge of pleural defect on burst pressure ([2]; 2.5% RADA16 applied topically, 14, 16, 18, and 22 gauge needles) | effect of topically added NaCl solution on burst pressure ([2]; 2.5% RADA16 topically, 16 G pleural defect, 0.154 M NaCl gently massaged in) | ranking of burst pressures [2] |
| --- | --- | --- | --- | --- | --- | --- | --- | --- | --- | --- | --- | --- | --- |
| Arg-Ala-Asp-Ala-Arg-Ala-Asp-Ala-Arg-Ala-Asp-Ala-Arg-Ala-Asp-Ala [PuraMatrix ®] | slightly higher | still clear | increased with ionic strength adjustment up to 0.7 M, while decreases above 0.7 M | increases with ionic strength adjustment up to 0.7 M, while decreases above 0.7 M | stiffer | higher than 0.9 M | higher | no gelation | increases | increased the burst pressure | negligible changes in burst pressures | slightly increased | best burst pressures |
| Ile-Glu-Ile-Lys-Ile-Glu-Ile-Lys-Ile-Glu-Ile-Lys-Ile [IEIK13] | – | still clear | did not significantly change with ionic strength adjustment up to 0.025 M, while decreases above 0.03 M | increases with ionic strength adjustment up to 0.03 M, while decreases above 0.03 M | – | > 0.03 M | higher | – | – | – | – | – | best burst pressures |
| Lys-Leu-Asp-Leu-Lys-Leu-Asp-Leu-Lys-Leu-Asp-Leu (Ac-KLDLKLDLKLDL-NH2) [KLD12] | – | still clear | – | – | – | > 0.3 M | higher | – | – | – | – | – | – |

From US20170173105A1, “AUTOASSEMBLING PEPTIDES FOR THE TREATMENT OF PULMONARY LEAKAGE” (3-D MATRIX, LTD., priority 2014, published 2017)
